± gives the standard deviation.
Assay: protein stability index of a GFP-peptide fusion (GPS, HEK-293T) (PSI 1-6); higher = more stable
[1] = treatment: DMSO, c terminus: a fixed tail appended
[2] = treatment: MLN4924 1 uM, 8 h, c terminus: a fixed tail appended
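Note: 24-mer peptide tiles fused after GFP, lentivirally expressed, FACS-sorted into six equal bins by GFP/DsRed ratio, decoded by Illumina sequencing, PSI is the read-weighted mean bin number.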

Sequence: EEGTSDSNTGSESNSATVEEPPTD [SMARCE1]
- protein stability index [1]: 5.36 ± 0.44
- protein stability index [2]: 5.67 ± 0.2

Sequence: QLLKGRVDNISTLDSEIKKNSDGM [CD207]
- protein stability index [1]: 4.24 ± 0.16
- protein stability index [2]: 4.23 ± 0.2

Sequence: RERQRRLEVEREAEKKREAKQRAK [LRRC59]
- protein stability index [1]: 5.22 ± 0.29
- protein stability index [2]: 5.43 ± 0.06

Sequence: FQQDTKGLVDFRDVALALAALDGG [LPCAT4]
- protein stability index [1]: 2.48 ± 0.3
- protein stability index [2]: 2.71 ± 0.2

Sequence: IGNPPVGPIGGMMPPQPGIPQQQG [ZNF207]
- protein stability index [1]: 4.62 ± 0.28
- protein stability index [2]: 4.53 ± 0.21

Sequence: IAHDFPGIGHKVDAVFMKDGFFYF [MMP1]
- protein stability index [1]: 2.41 ± 0.69
- protein stability index [2]: 2.27 ± 0.16

Sequence: SECGKAFPRKSELTEHQRIHTGIK [ZNF649]
- protein stability index [1]: 4.07 ± 0.19
- protein stability index [2]: 4.2 ± 0.062

Sequence: MLTLPFDESVVMPESQMCRKFSRE [NEUROD6]
- protein stability index [1]: 3.65 ± 0.15
- protein stability index [2]: 3.77 ± 0.15

Sequence: GLMSFIGNRNKLGYSLARGSIGF [TPRG1]
- protein stability index (treatment: DMSO, c terminus: native): 2.67 ± 0.39
- protein stability index (treatment: MLN4924 1 uM, 8 h, c terminus: native): 2.5 ± 0.97

Sequence: YPCLEKPRIWSLAHTATASAVEGA [IRX6]
- protein stability index [1]: 2.8 ± 0.41
- protein stability index [2]: 2.98 ± 0.49

Sequence: GGCTVGVAGEGVRRKGEMGLSAED [TRIM15]
- protein stability index [1]: 4.98 ± 0.46
- protein stability index [2]: 5.21 ± 0.37

Sequence: EAEKLERQLALPATEQAATQESTF [NOP53]
- protein stability index [1]: 5.43 ± 0.32
- protein stability index [2]: 5.53 ± 0.1

Sequence: SGQRLGGYRTSAVASGLQFDVETR [WDFY2]
- protein stability index [1]: 3.82 ± 0.23
- protein stability index [2]: 3.74 ± 0.27

Sequence: CDKKAMVWDMRSGQCVQAFETHES [GNB5]
- protein stability index [1]: 3.67 ± 0.27
- protein stability index [2]: 3.73 ± 0.29

Sequence: QLIEEGYVGEPLVCEVQVHGGSLL [GFOD1]
- protein stability index [1]: 2.44 ± 0.15
- protein stability index [2]: 2.46 ± 0.39

Sequence: ELAEIFRASGEHVTDEEIESLMKD [TNNC2]
- protein stability index [1]: 5 ± 0.41
- protein stability index [2]: 5.34 ± 0.33

Sequence: RDVPESPQHAADTPKSGEPRVPEE [YJU2B]
- protein stability index [1]: 5.44 ± 0.19
- protein stability index [2]: 5.53 ± 0.24

Sequence: DQLLLNYAKKESDLNGAQIKLREY [LMNB1]
- protein stability index [1]: 3.617 ± 0.031
- protein stability index [2]: 3.71 ± 0.1

Sequence: ALRQTVEADVNGLRRVLDELTLAR [KRT16]
- protein stability index [1]: 3.18 ± 0.58
- protein stability index [2]: 3.06 ± 0.33

Sequence: IDVSNPQTVGVGRGRFTTYEIRVK [SNX3]
- protein stability index [1]: 2.56 ± 0.25
- protein stability index [2]: 2.69 ± 0.35

Sequence: WPPSFLSEFRALQFSLMLCAFVGA [SPNS1]
- protein stability index [1]: 3.23 ± 0.53
- protein stability index [2]: 2.85 ± 0.64

Sequence: KSSIYESDFQIEPGFYATYESTLF [MIA2]
- protein stability index [1]: 2.33 ± 0.52
- protein stability index [2]: 2.3 ± 0.31

Sequence: PPPTTAPHKERYFDRVDENNPEYL [ADD1]
- protein stability index [1]: 5.06 ± 0.17
- protein stability index [2]: 5.14 ± 0.17

Sequence: SGERWLERYEIDSLIGKGSFGQVV [DYRK1B]
- protein stability index [1]: 2.97 ± 0.2
- protein stability index [2]: 3.1 ± 0.25

Sequence: EDTHVQIGQVHEEFKQNIENVSVE [FCHO1]
- protein stability index [1]: 5.48 ± 0.27
- protein stability index [2]: 5.49 ± 0.21

Sequence: IKSVKESLQESVEDSLATVKVVLI [IQUB]
- protein stability index [1]: 2.27 ± 0.66
- protein stability index [2]: 2.44 ± 0.32

Sequence: NCGLEEKIANLGSCNDSKLEFRSF [S100A14]
- protein stability index [1]: 2.25 ± 0.68
- protein stability index [2]: 2.82 ± 1.2

Sequence: FRKFIPKCSKIVIDFDSINSRPSQ [DCTD]
- protein stability index [1]: 2.4 ± 0.27
- protein stability index [2]: 2.15 ± 0.33

Sequence: ALLKFKPGAFIAGVPVQPVLIRYP [LPCAT4]
- protein stability index [1]: 2.54 ± 0.73
- protein stability index [2]: 2.39 ± 0.7

Sequence: MRKGNTMQQFLQKALEILRKDFSE [FAM50A]
- protein stability index [1]: 3.09 ± 0.59
- protein stability index [2]: 2.89 ± 0.46

Sequence: EVLVGKTIEQSLLEVMEEEELANL [RSPH3]
- protein stability index [1]: 4.89 ± 0.3
- protein stability index [2]: 4.91 ± 0.23

Sequence: ERVEALGQFVMKTRRTLKGHGNKV [GNB5]
- protein stability index [1]: 3.09 ± 0.7
- protein stability index [2]: 3.52 ± 0.14

Sequence: AIEHFQPNADLLFSDPSQSDPETK [FCHO1]
- protein stability index [1]: 5.5 ± 0.074
- protein stability index [2]: 5.44 ± 0.25

Sequence: HEKTVDIYGHVTLMRAQRNYMVQT [PTPRD]
- protein stability index [1]: 2.32 ± 0.4
- protein stability index [2]: 2.18 ± 0.43

Sequence: SELQAYIAQCQDSPTSGKFRRGSG [MCOLN1]
- protein stability index [1]: 4.21 ± 0.075
- protein stability index [2]: 4.31 ± 0.15

Sequence: CRLRCHPPRGPLAKHRLVPPAQGR [TRIM9]
- protein stability index [1]: 2.84 ± 0.14
- protein stability index [2]: 3.47 ± 0.56

Sequence: GGGGLHSVGTYIIDLLTFLTGQKA [GFOD1]
- protein stability index [1]: 2.1 ± 0.31
- protein stability index [2]: 1.98 ± 0.36

Sequence: GLLKYCSLLVHGFKPACMSEIKNL [TENT5D]
- protein stability index [1]: 3.48 ± 0.69
- protein stability index [2]: 2.59 ± 1.2

Sequence: VNNTTLTNSTPLRAACFDGHLEIV [FEM1C]
- protein stability index [1]: 2.76 ± 0.34
- protein stability index [2]: 2.61 ± 0.38

Sequence: NTTCQTENRLSVFFSVIFMTVGIL [PTGFR]
- protein stability index [1]: 2.39 ± 0.53
- protein stability index [2]: 2.64 ± 0.46

Sequence: SVREVTQIKCIELKSELGRKWHKA [P2RY14]
- protein stability index [1]: 2.83 ± 0.24
- protein stability index [2]: 3.23 ± 0.29

Sequence: ESQKANQCAVLIYTSGTTGIPKGV [ACSBG2]
- protein stability index [1]: 2.13 ± 0.26
- protein stability index [2]: 2.52 ± 0.41

Sequence: ETSPLPGMLAPAAGPAFDSDPEIS [PPFIA4]
- protein stability index [1]: 5.48 ± 0.29
- protein stability index [2]: 5.38 ± 0.31

Sequence: LKKSSQVPRTEAPAPASSTPQEPW [PDLIM7]
- protein stability index [1]: 4.74 ± 0.3
- protein stability index [2]: 4.76 ± 0.46

Source: the supplement of paper PMC10567573
